The values that follow come from patent publication US20050054043A1 (UNIVERSITY OF VERMONT, published 2005).

The target in assay [1] is T1, transferrin receptor on HeLa S3 cells (human, UniProt P02786 1-760).
T1 construct: whole, on cells; also called human receptors; cell-surface transferrin receptors
Nature of the assay: direct equilibrium binding of radioiodinated diferric transferrin to HeLa S3 cells, LIGAND fit (apparent Kd').
Experimental: After 30 min of incubation at 37° C. with gentle shaking, portions of the cell suspension (3×100 μL) were pipetted into microfuge tubes containing 0.9 mL of ice-cold JMEM-BSA over 300 μL of dibutyl phthalate and centrifuged for 2 min in a Beckman microfuge. The aqueous and organic phases were aspirated to just above the cell pellet. The bottom of the tube containing the cell pellet was released by a hot wire into a plastic tube (12×75 mm) and assayed for radioactivity.

The target of assay [2] is T1, transferrin receptor on HeLa S3 cells. Nature of the assay: competition of unlabeled transferrin against radioiodinated Boehringer Mannheim hTf on HeLa S3 cells, LIGAND fit (apparent Kd').
Experimental: Cells were routinely grown in DMEM-F-12 containing 10% newborn calf serum. Prior to beginning a binding experiment, the cells were harvested with Versene, and taken up in Joklik's minimum essential medium-20 mM Hepes-2% BSA (JMEM-BSA). Endogenous bovine transferrin was removed from the HeLa cells by incubation for 10 min at 37° C. at a 5-fold dilution with JMEM-BSA. After centrifugation of the cells and removal of the supernatant, this procedure was repeated twice. […] After 30 min of incubation at 37° C. with gentle shaking, portions of the cell suspension (3×100 μL) were pipetted into microfuge tubes containing 0.9 mL of ice-cold JMEM-BSA over 300 μL of dibutyl phthalate and centrifuged for 2 min in a Beckman microfuge. The aqueous and organic phases were aspirated to just above the cell pellet. The bottom of the tube containing the cell pellet was released by a hot wire into a plastic tube (12×75 mm) and assayed for radioactivity.

T1 sequence (P02786 whole entry): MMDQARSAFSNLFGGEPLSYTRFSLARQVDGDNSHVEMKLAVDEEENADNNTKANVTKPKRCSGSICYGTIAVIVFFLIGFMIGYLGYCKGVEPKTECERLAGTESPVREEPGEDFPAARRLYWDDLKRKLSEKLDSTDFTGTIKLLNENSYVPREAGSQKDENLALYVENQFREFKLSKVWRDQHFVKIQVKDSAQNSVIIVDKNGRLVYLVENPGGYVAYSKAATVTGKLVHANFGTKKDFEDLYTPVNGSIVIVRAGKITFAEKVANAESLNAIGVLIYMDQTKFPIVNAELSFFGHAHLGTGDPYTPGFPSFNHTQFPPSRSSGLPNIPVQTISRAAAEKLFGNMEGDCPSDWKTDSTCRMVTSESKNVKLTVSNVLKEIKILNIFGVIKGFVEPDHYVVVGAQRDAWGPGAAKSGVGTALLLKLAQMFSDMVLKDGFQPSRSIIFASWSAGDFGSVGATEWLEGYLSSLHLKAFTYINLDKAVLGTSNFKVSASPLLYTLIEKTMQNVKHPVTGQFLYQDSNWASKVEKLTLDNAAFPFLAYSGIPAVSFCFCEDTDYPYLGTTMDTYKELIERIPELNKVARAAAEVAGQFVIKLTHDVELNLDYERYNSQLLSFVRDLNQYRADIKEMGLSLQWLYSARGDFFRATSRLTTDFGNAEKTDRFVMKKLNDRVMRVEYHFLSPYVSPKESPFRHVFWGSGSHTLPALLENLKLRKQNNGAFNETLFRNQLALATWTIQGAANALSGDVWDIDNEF

B1: hTf N413D/N611D mutant (recombinant nonglycosylated human serum transferrin), diferric (ligand)
chain: VPDKTVRWCAVSEHEATKCQSFRDHMKSVIPSDGPSVACVKKASYLDCIRAIAANEADAVTLDAGLVYDAYLAPNNLKPVVAEFYGSKEDPQTFYYAVAVVKKDSGFQMNQLRGKKSCHTGLGRSAGWNIPIGLLYCDLPEPRKPLEKAVANFFSGSCAPCADGTDFPQLCQLCPGCGCSTLNQYFGYSGAFKCLKDGAGDVAFVKHSTIFENLANKADRDQYELLCLDNTRKPVDEYKDCHLAQVPSHTVVARSMGGKEDLIWELLNQAQEHFGKDKSKEFQLFSSPHGKDLLFKDSAHGFLKVPPRMDAKMYLGYEYVTAIRNLREGTCPEAPTDECKPVKWCALSHHERLKCDEWSVNSVGKIECVSAETTEDCIAKIMNGEADAMSLDGGFVYIAGKCGLVPVLAENYDKSDNCEDTPEAGYFAVAVVKKSASDLTWDNLKGKKSCHTAVGRTAGWNIPMGLLYNKINHCRFDEFFSEGCAPGSKKDSSLCKLCMGSGLNLCEPNNKEGYYGYTGAFRCLVEKGDVAFVKHQTVPQNTGGKNPDPWAKNLNEKDYELLCLDGTRKPVEEYANCHLARAPNHAVVTRKDKEACVHKILRQQQHLFGSDVTDCSGNFCLFRSETKDLLFRDDTVCLAKLHDRNTYEKYLGEEYVKAVGNLRKCSTSSLLEACTFRRP
modifications: non-glycosylated; diferric (iron-saturated); radioiodinated in Table 2 (A), unlabeled in (B)
notes: Full-length human transferrin with both N-glycosylation sites changed to Asp, expressed in BHK cells; Positions use mature-protein numbering; also called hTf(N/D)
With B1, the results for the Kd in assay [1] and in assay [2] were 0.0234 µM and 0.0198 µM, respectively.
